{"source": "paper PMC7347289", "target": "Sambucus nigra agglutinin (Sambucus nigra)", "sequence (Q41358 29-289 limits assumed, chain 1 of 2)": "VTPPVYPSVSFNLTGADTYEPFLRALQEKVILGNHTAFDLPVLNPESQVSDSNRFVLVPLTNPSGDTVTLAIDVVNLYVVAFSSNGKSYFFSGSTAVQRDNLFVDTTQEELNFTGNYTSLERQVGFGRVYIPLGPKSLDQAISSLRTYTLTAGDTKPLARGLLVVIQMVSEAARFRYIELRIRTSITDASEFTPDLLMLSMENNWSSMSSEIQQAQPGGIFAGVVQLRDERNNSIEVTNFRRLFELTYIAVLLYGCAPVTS", "sequence (Q41358 309-570 limits assumed, chain 2 of 2)": "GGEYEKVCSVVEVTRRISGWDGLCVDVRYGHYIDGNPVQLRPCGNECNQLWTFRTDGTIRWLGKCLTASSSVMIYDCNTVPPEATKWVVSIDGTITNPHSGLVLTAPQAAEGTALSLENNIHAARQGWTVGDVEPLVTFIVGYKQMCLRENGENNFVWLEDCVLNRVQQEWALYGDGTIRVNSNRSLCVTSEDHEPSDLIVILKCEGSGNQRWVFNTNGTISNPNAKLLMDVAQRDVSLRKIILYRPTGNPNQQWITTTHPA", "experiment": "localized surface plasmon resonance"}
{"substance": "α-1 acid glycoprotein (from UniProt P02763 19-201) (natural protein)", "values": [{"measurement": "Kd", "value": 31, "unit": "µM"}]}
